The results in this text go back to patent publication US20240287144A1.

Experiment in all cases: cell-based or functional assay
Common to all, as to parameters: unit not given beside the values

For test [1], the target named is HIV-1 Env of virus 001428-2.42.SG3 (Clade C) (HIV-1 strain 001428-2.42).
Test [2] has as its target HIV-1 Env of virus 242-14.SG3 (Clade AG) (HIV-1 strain 242-14).
The target in test [3] is HIV-1 Env of virus 25925-2.22.SG3 (Clade C) (HIV-1 strain 25925-2.22).
Test [4] concerns the target HIV-1 Env of virus 3301.V1.C24.SG3 (Clade AC) (HIV-1 strain 3301.V1.C24).
For test [5], the target named is HIV-1 Env of virus BG505.W6M.C2.T332N.SG3 (Clade A) (HIV-1 strain BG505).
For test [6], the target named is HIV-1 Env of virus CNE58.SG3 (Clade C) (HIV-1 strain CNE58).
The target of test [7] is HIV-1 Env of virus DJ263.8.SG3 (Clade AG) (HIV-1 strain DJ263.8).
Test [8] has as its target HIV-1 Env of virus HxB2.DG.SG3 (Clade B) (HIV-1 strain HxB2).
The target of test [9] is HIV-1 Env of virus MW965.26.SG3 (Clade C) (HIV-1 strain MW965.26).
The target of test [10] is HIV-1 Env of virus ZM106.9.SG3 (Clade C) (HIV-1 strain ZM106.9).

As for VRC01 (antibody), the ID50 (virus neutralization, ctrl mAb; run with wk 6 sera) in test [1] is less than 0.05; in test [2], more than 50; in [3], 2.91; in test [4], 0.305; in [5], 0.097; in [6] it was 0.398. The ID50 (virus neutralization, ctrl mAb; run with wk 6 sera) came out at 0.095 in test [7], 0.07 in [8], 0.025 in test [9] and 0.472 in test [10]. Moreover, the ID50 (virus neutralization, ctrl mAb; run with wk 18 sera) is less than 0.05 in test [1]; more than 50 in test [2]; 1.07 in [3]; 0.358 in test [4]; 0.068 in test [5]; 0.435 in test [6]. Further, the ID50 (virus neutralization, ctrl mAb; run with wk 18 sera) in test [7] was 0.127; in test [8], less than 0.05; in test [9], 0.041; in test [10], 0.486.
